Measurements as given in the supplement of paper PMC9170038.

System: MS2 coat protein
Experiment: apparent KD of MS2 coat protein; designed switch direction (-1 OFF switch, 1 ON switch): -1; higher = weaker reporter binding
Method in brief: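 Each step of the titration lasted 0.8–1.5 h at the lowest concentration and 10–20 min at the highest. The protein, SNAP-549-labelled MS2 coat protein, went from 0.7 or 1.5 nM doubling to 3 µM over RNA switches transcribed on Illumina chips by stalled E. coli RNA polymerase. Normalised cluster fluorescence was curve-fitted, and the per-design median over clusters is given as apparent KD.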

[1] = input ligand: microRNA oligo, concentration not stated
[2] = Eterna round: R95, input ligand: microRNA oligo, concentration not stated
[3] = Eterna round: R95, input ligand: FMN 200 uM
[4] = Eterna round: R95, input ligand: none

Sequence	apparent KD of MS2 coat protein (input ligand: FMN 200 uM) [µM]	apparent KD of MS2 coat protein (input ligand: none) [µM]	apparent KD of MS2 coat protein [1] [µM]	apparent KD of MS2 coat protein [2] [µM]	apparent KD of MS2 coat protein [3] [µM]	apparent KD of MS2 coat protein [4] [µM]
UAUGGUUAAGUCAGGAUAUACUCAUAGAAGUCUGUGUAGAAGGGACAUGAGGAUCACCCAUGUAUGGUAGUGUU [Ex4 #47] (Eterna round: R97, puzzle: Brourd's mod of Exclusion 4)	0.151	0.159				
UAUGUGUCAGGAUAUUAAUUAGAACAGAAUUUAACAAUAAUUAAGAAGGGACAUGAGGAUCACCCAUGUUCAUC [JR_Ex4_Sub023] (Eterna round: R97, puzzle: Exclusion 4)	0.0279	0.0233				
UAUUACCUAGGAUAUACAUGAGGAUCACCCAUGUCACGGGUCAACUUGUCCUAUGCGUGUAGAAGGAGGGACCC [JL Ceriza mod 6] (Eterna round: R96, puzzle: Exclusion 3)	0.025	0.0254	0.0165			
UAUUACCUAGGAUAUACAUGAGGAUCACCCAUGUCACGGGUCAACUUGUCCUAUGCGUGUAGAAGGAGGGACCC [JL Ceriza mod 6] (puzzle: Exclusion 3)				0.0189		
UAUUACUCAGGAUAUAUGAUGUGAAACAUGAGGAUCACCCAUGUAAUAUUAUGGAUGUAAAUAGAAGGGAGAUUAU [Mat - Exclusion 5 - JL mod - D19] (puzzle: Exclusion 5)				0.0518	0.0492	0.0646
UAUUAGCAAGCAAAUGGGUACAUGAGGAUCACCCAUGUGCUCGUCUUAUAAGGUACUGUGACGAACGUCACGGUACC [mod--Eli5] (Eterna round: R97, puzzle: Sensor, turn-off variant 1)	0.0278	0.0268				
UAUUAGCAAGCAAGAUCCUACAUGAGGAUCACCCAUGUGCUCGUCUUAAACGCAGAAUUACUGCGAGCUCGUCUUAU [Winner reversed engineered 25] (Eterna round: R97, puzzle: Sensor, turn-off variant 1)	0.579	0.849				
UAUUAGCUAGGAUAUACAUGAGGAUCACCCAUGUCACGGGUCCACUCAUCCUAUGCGUGUAGAAGGAGCGACCC [JL Ceriza mod 1] (puzzle: Exclusion 3)				0.0236		
UAUUAGCUAGGAUAUACAUGAGGAUCACCCAUGUCACGGGUCCACUCGUCCUAUGCGUGUAGAAGGAGCGACCC [JL Ceriza mod 2] (puzzle: Exclusion 3)				0.0206		
UAUUAGCUUGCGAGAUCCGACAUGAGGAUCACCCAUGUGCUCGUCUUAUAUGGGAGGGAGGGAAAACCCUCCCUCCC [mod-Eli] (Eterna round: R97, puzzle: Sensor, turn-off variant 1)	0.0238	0.0254				
UAUUAGUAAGGAUAUCCUUGCAUGGACGAAAGUCCAUGCAAGGAGAAGGUACAUGAGGAUCACCCAUGUUUAUU [Mod of Fisker 15 - Jieux - Exclusion 4] (Eterna round: R97, puzzle: Exclusion 4)	0.018	0.0174				
UAUUAGUGAGGAUAUGGUAUAGAUAAGAUGAUGAAAGAACUCCAGAAGGCACAUGAGGAUCACCCAUGUAGUAG [JL-ex4-2.08 Jieux mod] (puzzle: Exclusion 4)				0.0237	0.0204	0.0209
UAUUUACAUGAGGAUCACCCAUGUCAGGAUAUGCUCGAUAUAUGGAAACAUAUAUCGAGCAGAAGGGACUAGCG [Jieuxxlusion 7 - Jieux - Exclusion 1] (Eterna round: R97, puzzle: Exclusion 1)	0.152	0.0727				
UAUUUAUAUGAAGGAUAUACUUAACAUGAGGAUCACCCAUGUGGUGUUGUGAGUGAGUGAGUUUAGUAGAAGGUCAAUUCUUUU [JMF's solution 96] (Eterna round: R96, puzzle: Exclusion NG 2)	0.893	0.448	0.415			
UCAAACAUCGUUAGGAUAUGCUGGACUAAAUAGUGGCAGAAGGAACAUGAGGAUCACCCAUGUGCCUCGAUUGC [Eternabot (L2) Solution 26] (Eterna round: R97, puzzle: Brourd's mod of Exclusion 4)	0.0174	0.0134				
UCAAGCUUUAAGCGCGUGAACAUGAGGAUCACCCAUGUAUUUCGGGUUUUGGUUUUUUGUAUGGGUUCUUGUCUUAU [JR_SWV3TOV1_Sub096] (puzzle: Sensor v3, turn-off variant 1)				0.0192	0.0392	0.0418

Sequence	apparent KD of MS2 coat protein (input ligand: FMN 200 uM) [µM]	apparent KD of MS2 coat protein (input ligand: none) [µM]	apparent KD of MS2 coat protein [1] [µM]	apparent KD of MS2 coat protein [2] [µM]	apparent KD of MS2 coat protein [3] [µM]	apparent KD of MS2 coat protein [4] [µM]
UCAAGUAUGUAGGAUAUCGAUGUCCUCGGACAUCGAGAAGGACGUACAUGAGGAUCACCCAUGUAACUUGCAUG [Exclusion 6 - B - 10:b] (puzzle: Exclusion 6)				0.0443		
UCACACGGAGGAUAUACCGUCGGUCAUUGGUGUGACGUAUCACAUGAGGAUCACCCAUGUAGAAGGCCGUGCUU [Eternabot (L2) Solution 14] (Eterna round: R97, puzzle: Exclusion 2)	0.394	0.208				
UCACGGGACUGAGGAUAUACAUGAACCAUGGUUGUAGAAGGCAGAAGGUUGGAUCAUACACUAAACAUGAGGAUCACCCAUGUU [JR_ExcNG1_Sub028] (Eterna round: R96, puzzle: Exclusion NG 1)	0.0164	0.0218	0.0157			
UCACGGGACUGAGGAUAUACAUGAACCAUUUUUGUAGAAGGCAGAAUGUUAGAUCAUACACUAAACAUGAGGAUCACCCAUGUU [JR_ExcNG1_Sub025] (Eterna round: R96, puzzle: Exclusion NG 1)	0.0151	0.0197	0.0188			
UCACGGGACUGAGGAUAUACAUUUAUUAUUUUAGUAGAAGGCAGAAAGUUAGUUUUUUCACUAUACAUGAGGAUCACCCAUGUU [JR_ExcNG1_Sub085] (Eterna round: R96, puzzle: Exclusion NG 1)	0.0212	0.0291	0.0204			
UCACGUUAGGAGGAUAUCGAUCCAUUAGCGCGACGAGAAGGCCUGACAUGAGGAUCACCCAUGUGGUCAAACAA [Bexelaar] (puzzle: Exclusion 6)				0.265	0.0521	0.158
UCAGGCGAUGUCAGGAUAUCGGCUGCCCAAUUGGCUGAGAAGGGACAUGAGGAUCACCCAUGUUAGAUCCAGCC [BmEX4 A.25] (Eterna round: R97, puzzle: Brourd's mod of Exclusion 4)	0.0302	0.0169				
UCAUGGUAGCAGGAUAUGCUAGAAAUUUUUUAUGCAGAAGGGCUUACAUGAGGAUCACCCAUGUGUUAGGUCUA [JR_E6_Sub070] (puzzle: Exclusion 6)				0.0508	0.0472	0.0485
UCAUGGUAGCAGGAUAUGCUUGUAAUUUUUUUUGCAGAAGGGCUUACAUGAGGAUCACCCAUGUGUUAGGUCUA [JR_E6_Sub068] (puzzle: Exclusion 6)				0.0307		
UCAUGUAUGUAGGAUAUCGAUGUCCUUGGACAUCGAGAAGGACGUACAUGAGGAUCACCCAUGUAACUUGCAUG [Exclusion 6 - B - 11:d] (puzzle: Exclusion 6)				0.0187		
UCAUGUAUGUAGGAUAUCGAUGUCUGCGGACAUCGAGAAGGACGUACAUGAGGAUCACCCAUGUAACUUGCAUG [Exclusion 6 - B - 11:e] (puzzle: Exclusion 6)				0.0178	0.0319	0.0131
UCAUGUCCUGAGGAUAUGUAGCGGAUAAACGCAACAGAAGGCAGGACAUGAGGAUCACCCAUGUGUGCCUUCCA [Exclusion 6 Mod of JL of Mod of Letion by ViennaUCT] (Eterna round: R97, puzzle: Exclusion 6)	0.00814	0.113				
UCCGAAGCAGGAUAUACAUGAGGAUCACCCAUGUGCUUGCAUGGCGUGGGAAGUCAUAGUAGAAGGGCUACGCC [jl-ex3-4.71 ViennaUCT mod] (Eterna round: R97, puzzle: Exclusion 3)	0.0531	0.0337				
UCCGUGUCAGGAUAUAACUGGUCGAGCGCAGAAGCGUCCUGUUAGAAGGGACAUGAGGAUCACCCAUGUUUAAC [Eternabot (L1) Solution 74] (Eterna round: R97, puzzle: Exclusion 4)	0.213	0.0385				
UCCGUGUGAGGAUAUGCGAAUGACGAGUUACCUUGUCGCAAGCAGAAGGUACAUGAGGAUCACCCAUGUCCUAU [Eternabot (L1) Solution 61] (Eterna round: R97, puzzle: Exclusion 4)	0.0278	0.0204				
